The values below come from patent publication US20100285027A1 (CENTRE NATIONAL DE LA RECHERCHE SCIENTIFIQUE, published 2010).

The target of one assay is T1, synthetic mouse hepcidin (mouse, UniProt Q9EQ21 59-83).
T1 construct: mature; also called murine hepcidin-25
T1 peptide (looked up): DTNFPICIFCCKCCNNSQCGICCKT
The experiment in a line: dot blot on nitrocellulose, antibody 1:200, HRP secondary antibody, ECL. The protocol: Samples of synthetic human hepcidin (100 to 500 ng) or synthetic mouse) hepcidin (500 ng) (Peptide International, Louisville, Ky., USA), or of […] sera from a patient with an inflammatory disease, or from a healthy volunteer, were used. In one experiment, one sample of synthetic human hepcidin (500 ng) was treated with Laemmli buffer. The samples were directly spotted onto the nitrocellulose membrane and allowed to dry overnight. Non-specific sites were blocked by soaking the membrane in 5% skim milk in TBS-T (1 hr, at room temperature).
The primary antibodies (AN-LP1 antibody, or irrelevant antibody HPC4 directed against the epitope […] (SEQ ID NO: 11) of human protein C) were added at a dilution of 1:200 from a solution at 6 mg/ml. Incubation was performed for 2 h at room temperature or overnight at +4° C.
After 3 washes with TBS-T, the membranes were incubated with the secondary antibody conjugated with horseradish peroxidase (1:5000) for 1 h at room temperature.

Assay [1] concerns the target T2, synthetic human hepcidin-25 (human).
T2 construct: Synthetic peptide (Peptide International for the blots); Serum hepcidin and liver hepcidin detected by AN-LP1 are written under this molecule
T2 peptide: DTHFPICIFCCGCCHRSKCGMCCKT
The experiment in a line: SPR (BIAcore 2000), AN-LP1 immobilized on a CM5 chip, hepcidin 0.39 nM to 12.5 nM as analyte. Here is the method: To estimate AN-LP1 affinity constant and the antibody-antigen interactions, surface plasmon resonance (SPR) measurements were performed with a BIAcore 2000 instrument using carboxymethylated dextran CM5 chips (BIAcore, Piscataway, N.J.). AN-LP1 mAb, dilued at 2 μg/ml in 5 mM maleate buffer (pH 5.75), was immobilized on the CM5 chips by amine coupling.
Hepcidin was diluted in running buffer HBS-EP (0.01M HEPES pH 7.4; 0.15M NaCl, 3 mM EDTA and 0.005% polysorbate 20). Analyte was injected in 3 min, 60 μL/min injections and dissociation was monitored during 10 min. Surface Ab were generated by a 30-s to 1-min injection of glycine-HCL 10 mM pH 2. Kinetic rate constants were determined with purified antibodies. Concentrated hepcidin (0.39 nM to 12.5 nM) were injected over the chip surface at a rate of 60 μL/min to collect binding data. Data analyses were carried out with the BIAevaluation 3.0 software.

The target of assay [2] is T3, irrelevant peptide PELAPVSSNLKYTLDC
T3 construct: Negative control in the ELISA; also called control peptide
T3 peptide: PELAPVSSNLKYTLDC
The experiment in a line: ELISA on coated irrelevant peptide, anti-mouse peroxidase, ABTS, read at 405 nm. Here is the method: The hepcidin binding properties of AN-LP1 produced by hybridoma CNCM I-3794 were tested by ELISA. Synthetic human hepcidin-25 was coated on 96-well boxes, with a concentration of 1-10 microgram/ml in 100 mM carbonate buffer, pH 9.5. One part of the wells is coated with an irrelevant peptide ([…], SEQ ID NO: 10) to be able to determine the specific component of measured signal. After one night of contact, the wells are washed 3 times with a solution of PBS/0.05% tween 20, then saturated with a solution of 0.1M Tris 20%, sucrose pH 7.8. The mouse serums are added in duplicates, with 10-fold serial dilutions. After a 6 h incubation, the wells were washed three times with a solution of PBS 0.05%, tween 20 and an anti-mouse antibody coupled with peroxidase (Biosource) diluted to 1/5,000 in PBS, 0.1% BSA, 0.01% Tween 20 was added for an additional 1 h30-2 h.

B1: monoclonal antibody AN-LP1 produced by the hybridoma CNCM I-3794 (antibody, V domains shown)
VH: EVQLEESGGGLVQPGGSLKLSCAASGFTFSRYSMSWVRQTPEKRLEWVAYISDGGGSTYSPDTVKGRFSISRDNAQNTLYLQMSSLKSEDTAIFYCVRHARLEGYFDVWGAGTSVTVSS
VL: DVLTQSPASVAVSLGQRATISCRASESVDNYGNSFMNWYQQKPGQPPKLLIYRASNLESGIPARFSGSGSRTDFTLTINPVEADDVATYYCQQSNEDPTFGGGTKLEIKR
notes: also called AN-LP1 mAb; mAb AN-LP1
For B1, the binding result with synthetic mouse hepcidin is on record as “no binding (tested: 500 ng)”; in assay [2], “no binding”. Moreover, in assay [1], the dissociation constant Kd (in general, the constant that tells how readily two partners part at equilibrium) amounted to 0.099 nM.
